PMC12881670, “Investigation into ligand selectivity and bias at the formyl peptide receptor family” (The Journal of Pharmacology and Experimental Therapeutics, 2025)
Where no end group is shown, it is not given here. [ ]: non-standard residue; d: D form.

Key:
[1] = molecular target: T1, FLAG-Mm_Fpr1 C-terminally fused to Renilla Luciferase 8 (mouse, UniProt P33766 1-364); experiment: cell-based or functional assay
T1 sequence (looked up): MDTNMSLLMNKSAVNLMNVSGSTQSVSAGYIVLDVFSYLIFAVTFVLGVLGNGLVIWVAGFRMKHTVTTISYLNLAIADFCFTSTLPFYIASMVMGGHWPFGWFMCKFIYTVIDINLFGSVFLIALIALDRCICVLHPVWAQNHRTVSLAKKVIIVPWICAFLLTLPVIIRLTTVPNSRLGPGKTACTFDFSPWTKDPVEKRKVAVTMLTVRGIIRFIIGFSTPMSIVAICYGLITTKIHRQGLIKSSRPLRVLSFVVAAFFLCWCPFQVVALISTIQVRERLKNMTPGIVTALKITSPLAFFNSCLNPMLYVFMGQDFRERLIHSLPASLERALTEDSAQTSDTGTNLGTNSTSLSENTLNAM

[2] = molecular target: T2, FLAG-Mm_Fpr2 C-terminally fused to Renilla Luciferase 8 (mouse, UniProt O88536 1-351); experiment: cell-based or functional assay
T2 sequence (looked up): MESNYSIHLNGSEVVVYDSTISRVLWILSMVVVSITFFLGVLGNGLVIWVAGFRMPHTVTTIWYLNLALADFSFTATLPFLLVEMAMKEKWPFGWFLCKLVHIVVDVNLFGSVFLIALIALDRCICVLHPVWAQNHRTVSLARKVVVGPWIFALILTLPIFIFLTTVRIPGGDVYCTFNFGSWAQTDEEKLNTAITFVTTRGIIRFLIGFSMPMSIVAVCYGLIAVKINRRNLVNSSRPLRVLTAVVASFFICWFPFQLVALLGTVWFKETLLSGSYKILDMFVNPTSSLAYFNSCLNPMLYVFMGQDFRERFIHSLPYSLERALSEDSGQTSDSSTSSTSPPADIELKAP

[3] = molecular target: T3, FLAG-Hs_FPR2 C-terminally fused to Renilla Luciferase 8 (human, UniProt P25090 1-351); experiment: cell-based or functional assay
T3 sequence (looked up): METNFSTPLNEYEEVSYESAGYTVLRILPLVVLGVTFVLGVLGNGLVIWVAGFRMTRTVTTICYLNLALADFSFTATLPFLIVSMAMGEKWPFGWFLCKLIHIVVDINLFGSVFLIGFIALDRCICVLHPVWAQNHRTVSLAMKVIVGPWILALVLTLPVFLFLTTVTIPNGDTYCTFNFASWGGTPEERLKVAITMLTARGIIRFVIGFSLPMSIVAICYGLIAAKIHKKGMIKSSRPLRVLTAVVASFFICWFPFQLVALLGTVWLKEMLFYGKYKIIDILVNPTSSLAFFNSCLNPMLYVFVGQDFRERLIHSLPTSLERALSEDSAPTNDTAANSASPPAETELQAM

[4] = molecular target: T4, FLAG-Hs_FPR1 C-terminally fused to Renilla Luciferase 8 (human, UniProt P21462 1-350); experiment: cell-based or functional assay
T4 sequence (looked up): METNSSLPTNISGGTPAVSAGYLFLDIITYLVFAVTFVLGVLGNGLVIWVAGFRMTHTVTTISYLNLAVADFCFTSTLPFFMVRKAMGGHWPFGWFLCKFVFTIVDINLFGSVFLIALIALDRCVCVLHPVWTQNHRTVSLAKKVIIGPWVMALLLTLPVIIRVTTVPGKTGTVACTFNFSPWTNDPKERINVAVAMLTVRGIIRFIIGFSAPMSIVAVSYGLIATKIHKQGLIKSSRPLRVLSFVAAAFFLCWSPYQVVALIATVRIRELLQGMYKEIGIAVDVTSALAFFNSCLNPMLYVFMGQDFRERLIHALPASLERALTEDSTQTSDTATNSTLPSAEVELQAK

[5] = molecular target: T1, FLAG-Mm_Fpr1 C-terminally fused to …; experiment: cell-based or functional assay; remark: listed apart in the source
[6] = molecular target: T2, FLAG-Mm_Fpr2 C-terminally fused to …; experiment: cell-based or functional assay; remark: listed apart in the source
[7] = molecular target: T5, FLAG-tagged mouse Fpr2 (Mm_Fpr2) (mouse, UniProt O88536 1-351); experiment: flow cytometry on cells; competition binding: HEK293 cells stably expressing the receptor, lifted in PBS, on ice 90 min with 10 nM K(5/6-FAM)-WKYMVm and increasing unlabeled ligand; mean fluorescence of 5000 cells as % of that without competitor; One site-Fit logIC50
T5 construct: mouse formyl peptide receptor 2; cDNA purchased (ThermoFisher); source: HEK293, stably expressed, on cells; not shown: FLAG, N-terminal, kept
T5 sequence (looked up): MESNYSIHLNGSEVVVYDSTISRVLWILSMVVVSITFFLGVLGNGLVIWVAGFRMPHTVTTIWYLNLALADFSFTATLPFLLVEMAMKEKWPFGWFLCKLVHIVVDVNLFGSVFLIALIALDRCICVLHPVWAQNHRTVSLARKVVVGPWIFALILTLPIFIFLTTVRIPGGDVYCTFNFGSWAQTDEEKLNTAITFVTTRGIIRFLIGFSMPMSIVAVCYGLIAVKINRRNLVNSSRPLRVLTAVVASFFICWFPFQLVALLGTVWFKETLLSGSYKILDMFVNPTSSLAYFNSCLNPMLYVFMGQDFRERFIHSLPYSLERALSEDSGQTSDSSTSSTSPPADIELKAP

[8] = molecular target: T6, FLAG-tagged human FPR2 (Hs_FPR2) (human, UniProt P25090 1-351); experiment: as above
T6 construct: human formyl peptide receptor 2; also called hFPR2; source: HEK293, stably expressed, on cells; not shown: FLAG, N-terminal, kept
T6 sequence (looked up): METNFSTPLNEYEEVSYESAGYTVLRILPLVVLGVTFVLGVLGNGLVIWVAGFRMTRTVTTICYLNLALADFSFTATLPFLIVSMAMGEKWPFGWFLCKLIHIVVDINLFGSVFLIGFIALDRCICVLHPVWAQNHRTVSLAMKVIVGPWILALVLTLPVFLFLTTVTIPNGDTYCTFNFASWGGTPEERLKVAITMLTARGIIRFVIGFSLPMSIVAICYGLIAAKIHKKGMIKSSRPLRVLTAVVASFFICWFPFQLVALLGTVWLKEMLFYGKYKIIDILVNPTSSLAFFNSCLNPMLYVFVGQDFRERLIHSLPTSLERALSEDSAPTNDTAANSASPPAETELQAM

[9] = molecular target: T7, FLAG-tagged mouse Fpr1 (Mm_Fpr1) (mouse, UniProt P33766 1-364); experiment: as above
T7 construct: mouse formyl peptide receptor 1; cDNA purchased (ThermoFisher); source: HEK293, stably expressed, on cells; not shown: FLAG, N-terminal, kept
T7 sequence (looked up): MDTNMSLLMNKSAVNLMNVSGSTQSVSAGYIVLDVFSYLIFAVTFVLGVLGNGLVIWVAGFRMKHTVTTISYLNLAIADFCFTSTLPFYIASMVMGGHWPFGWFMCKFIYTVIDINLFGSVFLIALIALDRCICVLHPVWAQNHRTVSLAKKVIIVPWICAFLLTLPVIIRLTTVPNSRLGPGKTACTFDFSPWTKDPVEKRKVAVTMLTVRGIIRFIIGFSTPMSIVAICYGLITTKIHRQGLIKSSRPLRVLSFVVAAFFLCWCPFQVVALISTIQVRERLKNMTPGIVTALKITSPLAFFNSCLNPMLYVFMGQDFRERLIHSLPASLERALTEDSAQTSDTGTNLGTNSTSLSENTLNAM

[10] = molecular target: T8, FLAG-tagged human FPR1 (Hs_FPR1) (human, UniProt P21462 1-350); experiment: as above
T8 construct: human formyl peptide receptor 1; cDNA purchased (cDNA.org); source: HEK293, stably expressed, on cells; not shown: FLAG, N-terminal, kept
T8 sequence (looked up): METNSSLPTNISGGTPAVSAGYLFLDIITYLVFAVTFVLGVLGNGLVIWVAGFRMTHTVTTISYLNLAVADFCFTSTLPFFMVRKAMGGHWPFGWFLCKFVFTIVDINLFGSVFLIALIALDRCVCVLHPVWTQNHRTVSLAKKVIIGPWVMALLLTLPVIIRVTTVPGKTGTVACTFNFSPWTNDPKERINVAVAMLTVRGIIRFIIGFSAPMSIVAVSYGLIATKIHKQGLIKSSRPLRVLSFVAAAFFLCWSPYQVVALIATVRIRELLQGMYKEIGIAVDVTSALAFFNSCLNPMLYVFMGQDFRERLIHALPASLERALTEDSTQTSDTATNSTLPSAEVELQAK

BRET of receptor-RLuc8 with Venus-mGsi: Emax (% of 1 μM WKYMVm) [1]: 109%
BRET of receptor-RLuc8 with Venus-mGsi: Log EC50 (M) [1]: -6.69 log M
BRET of receptor-RLuc8 with Venus-mGsi: Emax (% of 1 μM WKYMVm) [2]: 103%
BRET of receptor-RLuc8 with Venus-mGsi: Log EC50 (M) [2]: -7.51 log M
BRET of receptor-RLuc8 with Arrestin 3-YFP: Emax (% of 1 μM WKYMVm) [3]: 102%
BRET of receptor-RLuc8 with Arrestin 3-YFP: Log EC50 (M) [3]: -8.13 log M
BRET of receptor-RLuc8 with Arrestin 3-YFP: Emax (% of 1 μM WKYMVm) [4]: 105%
BRET of receptor-RLuc8 with Arrestin 3-YFP: Log EC50 (M) [4]: -7.3 log M
BRET of receptor-RLuc8 with Arrestin 3-YFP: Emax (% of 1 μM WKYMVm) [5]: 112%
BRET of receptor-RLuc8 with Arrestin 3-YFP: Log EC50 (M) [5]: -6.8 log M
BRET of receptor-RLuc8 with Arrestin 3-YFP: Emax (% of 1 μM WKYMVm) [6]: 101%
BRET of receptor-RLuc8 with Arrestin 3-YFP: Log EC50 (M) [6]: -7.46 log M
Log IC50 [7]: -7.18 log M
Max Comp (%) [7]: 97.5%
Log IC50 [8]: -7.7 log M
Max Comp (%) [8]: 100%
Log IC50 [9]: -6.79 log M
Max Comp (%) [9]: 97%
Log IC50 [10]: -7.42 log M
Max Comp (%) [10]: 96.8%
B1: WKYMVm (peptide)
peptide: WKYMV[dM]
notes: the last residue is the D form; the bought peptide is probably also an amide (surmise); source: bought: Tocris
